Reference: doi:10.1101/2025.10.24.684422
Blank lines part the entries; values can stand above or below the substance they belong to.

Tests used:
[1] = molecular target: HSL3 ectodomain Gln120Ala (Arabidopsis thaliana); assay: ITC
[2] = molecular target: HAESA-LIKE 3 (HSL3) ectodomain, wild type (Arabidopsis thaliana); assay: ITC

Substance: CTNIP4(46-70)_(Cys-Cys) (peptide)
- fold reduction in binding affinity against wild-type HSL3 [1]: 60 fold

Substance: CTNIP4(47-70)_(Cys-Cys) (peptide)
- fold reduction in binding against CTNIP4(46-70) (Cys-Cys) [2]: 4 fold

Substance: CTNIP4^C58A(46-63) (peptide)
- fold reduction in binding affinity against CTNIP4(46-70) (Cys-Cys) [2]: 200 fold

Substance: CTNIP4^C58A.C68A(46-70) (peptide)
- fold impairment of binding against CTNIP4(46-70) (Cys-Cys) [2]: 200 fold

Further lines, results first:

- fold loss of affinity against CTNIP4(46-70) (Cys-Cys) [2]: 200 fold
Substance: CTNIP4(48-70)_(Cys-Cys) (peptide)

- fold reduction in binding affinity against CTNIP4(46-70) (Cys-Cys) [2]: 120 fold
Substance: CTNIP4^I61Y (peptide)
